Data as given in patent EP2605788B1.

Tests used:
Assay in all cases: cell-based or functional assay
[1] = target: CD20 (human) (UniProt P11836)
[2] = target: CD74 (human) (UniProt P04233)
[3] = target: CD22 (human) (UniProt P20273)

Chain of CD74 (human) (P04233 whole entry): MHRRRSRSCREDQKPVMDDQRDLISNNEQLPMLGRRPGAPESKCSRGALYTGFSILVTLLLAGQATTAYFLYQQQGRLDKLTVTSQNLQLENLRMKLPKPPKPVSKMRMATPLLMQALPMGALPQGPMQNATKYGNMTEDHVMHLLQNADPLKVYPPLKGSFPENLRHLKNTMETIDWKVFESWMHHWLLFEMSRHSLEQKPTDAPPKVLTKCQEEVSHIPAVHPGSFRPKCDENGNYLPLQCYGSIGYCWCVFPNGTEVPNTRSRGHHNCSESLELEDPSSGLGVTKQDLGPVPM
Chain of CD20 (human) (P11836 whole entry): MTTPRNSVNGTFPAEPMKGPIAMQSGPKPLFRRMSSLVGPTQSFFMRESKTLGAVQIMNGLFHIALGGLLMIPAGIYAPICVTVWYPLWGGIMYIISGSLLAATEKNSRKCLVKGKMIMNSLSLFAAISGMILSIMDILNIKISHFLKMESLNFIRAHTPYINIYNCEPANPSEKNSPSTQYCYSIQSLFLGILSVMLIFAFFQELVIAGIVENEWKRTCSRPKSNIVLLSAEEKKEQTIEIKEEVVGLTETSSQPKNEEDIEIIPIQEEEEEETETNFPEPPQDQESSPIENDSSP

homotypic adhesion (%), JeKo-1, 10 nM, 2 h [1] [%] | homotypic adhesion (%), JeKo-1, 10 nM, 24 h [1] [%] | EC50, MTS assay, CLL (WAC, MEC-1), ALL (REH-1, MN60) and MM (CAG, RPMI8226, KMS11, KMS12-BM, KMS12-PE) lines [2] [nM] | homotypic adhesion (%), JeKo-1, 10 nM, 2 h [2] [%] | homotypic adhesion (%), JeKo-1, 10 nM, 24 h [2] [%] | Substance | EC50, in vitro cytotoxicity, Daudi and Ramos [1] [nM] | EC50, in vitro cytotoxicity, Jeko-1 [1] [nM] | fold more potent than 22-Rap, in vitro cytotoxicity, Jeko-1 [1] [fold] | in vitro cytotoxicity, NHL cell lines [1] [nM] | in vitro cytotoxicity, NHL cell lines [3] [nM]
90 | > 95 | > 100 | 90 | > 95 | 20-(74)-(74) (bispecific antibody) |  |  |  |  | 
 |  |  |  |  | 20-Rap | 0.1 | 0.02 | 25 | > 1 | 
 |  |  |  |  | 22-Rap |  |  |  |  | > 1
90 | > 95 | > 100 | 90 | > 95 | 74-(20)-(20) (bispecific antibody) |  |  |  |  | 
